Data taken from patent US20150203575A1 (Genentech, published 2015).
Like-named read-outs stand apart in the source and are kept apart here.

Assays:
[1] = target: T1, MAG expressed on cells (human, UniProt P20916 20-626); experiment: flow cytometry, transfected 293T cells
T1 construct: Clone of the Origene human cDNA library; also called Myelin associated glycoprotein; SIGLEC4A
T1 sequence: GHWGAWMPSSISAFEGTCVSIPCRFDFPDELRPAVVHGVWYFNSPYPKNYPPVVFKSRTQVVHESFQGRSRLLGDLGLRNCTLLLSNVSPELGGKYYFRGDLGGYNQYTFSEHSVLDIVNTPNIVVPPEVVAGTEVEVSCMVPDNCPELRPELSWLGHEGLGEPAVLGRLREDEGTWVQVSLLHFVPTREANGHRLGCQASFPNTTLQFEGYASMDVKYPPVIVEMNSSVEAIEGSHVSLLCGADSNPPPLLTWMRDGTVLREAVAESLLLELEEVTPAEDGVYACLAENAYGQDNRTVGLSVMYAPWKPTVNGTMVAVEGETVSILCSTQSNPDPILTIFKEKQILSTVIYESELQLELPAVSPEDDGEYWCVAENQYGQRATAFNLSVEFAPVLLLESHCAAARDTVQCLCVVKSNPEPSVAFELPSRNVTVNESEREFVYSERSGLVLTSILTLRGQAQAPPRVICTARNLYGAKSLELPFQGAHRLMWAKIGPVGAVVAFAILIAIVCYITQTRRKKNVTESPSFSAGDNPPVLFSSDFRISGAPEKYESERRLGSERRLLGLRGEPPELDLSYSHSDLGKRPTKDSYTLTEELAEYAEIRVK

[2] = target: T2, human COLEC12 expressed on cells (human, UniProt Q5KU26 1-742); experiment: flow cytometry, transfected 293T cells, 2 µg/ml
T2 construct: also called hCOLEC12; C-terminal his tagged hCOLEC12
T2 sequence (Q5KU26 whole entry S522P/G606S): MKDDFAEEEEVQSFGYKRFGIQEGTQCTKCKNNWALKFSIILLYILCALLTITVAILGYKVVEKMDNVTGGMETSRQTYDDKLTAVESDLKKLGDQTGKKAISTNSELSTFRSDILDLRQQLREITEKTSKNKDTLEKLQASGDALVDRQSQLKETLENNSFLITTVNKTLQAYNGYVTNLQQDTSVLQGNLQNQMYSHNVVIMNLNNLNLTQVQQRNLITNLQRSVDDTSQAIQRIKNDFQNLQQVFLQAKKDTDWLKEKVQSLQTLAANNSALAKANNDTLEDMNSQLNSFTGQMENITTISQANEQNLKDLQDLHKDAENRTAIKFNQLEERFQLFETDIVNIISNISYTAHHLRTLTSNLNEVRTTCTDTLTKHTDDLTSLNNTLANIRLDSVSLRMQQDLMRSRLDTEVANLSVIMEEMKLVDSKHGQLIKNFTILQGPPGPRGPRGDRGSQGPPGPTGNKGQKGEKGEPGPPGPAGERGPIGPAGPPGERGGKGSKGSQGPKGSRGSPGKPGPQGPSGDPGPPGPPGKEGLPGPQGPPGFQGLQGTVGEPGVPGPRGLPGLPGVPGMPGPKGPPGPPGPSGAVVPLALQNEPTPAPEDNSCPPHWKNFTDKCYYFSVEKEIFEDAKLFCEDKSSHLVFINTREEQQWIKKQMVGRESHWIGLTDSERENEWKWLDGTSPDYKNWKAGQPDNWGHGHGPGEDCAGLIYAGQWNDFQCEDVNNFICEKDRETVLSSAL

[3] = target: T3, CLEC4G expressed on cells (human, UniProt Q6UXB4 1-293); experiment: flow cytometry, transfected 293T cells, 2 µg/ml
T3 construct: Clone of the Origene human cDNA library; also called C type lectin superfamily 4 member G
T3 sequence: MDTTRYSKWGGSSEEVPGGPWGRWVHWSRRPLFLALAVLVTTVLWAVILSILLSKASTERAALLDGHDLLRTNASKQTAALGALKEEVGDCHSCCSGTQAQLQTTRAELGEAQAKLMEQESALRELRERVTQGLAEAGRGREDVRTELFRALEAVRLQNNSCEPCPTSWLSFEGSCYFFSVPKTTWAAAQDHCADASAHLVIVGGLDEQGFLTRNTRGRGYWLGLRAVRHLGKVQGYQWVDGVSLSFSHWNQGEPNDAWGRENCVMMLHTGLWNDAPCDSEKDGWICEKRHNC

[4] = target: T2, human COLEC12 expressed on cells; experiment: flow cytometry, transfected 293T cells, 2 µg/ml; remark: listed apart in the source
[5] = target: T3, CLEC4G expressed on cells; experiment: flow cytometry, transfected 293T cells, 2 µg/ml; remark: listed apart in the source
[6] = target: T1, MAG expressed on cells; experiment: flow cytometry, transfected 293T cells, 2 µg/ml
[7] = target: T4, LRRTM4 expressed on cells (human, UniProt Q86VH4 31-590); experiment: flow cytometry, transfected 293T cells, 2 µg/ml
T4 construct: Clone of the Origene human cDNA library; also called Leucine rich repeat transmembrane neuronal 4
T4 sequence (Q86VH4 31-590 limits assumed): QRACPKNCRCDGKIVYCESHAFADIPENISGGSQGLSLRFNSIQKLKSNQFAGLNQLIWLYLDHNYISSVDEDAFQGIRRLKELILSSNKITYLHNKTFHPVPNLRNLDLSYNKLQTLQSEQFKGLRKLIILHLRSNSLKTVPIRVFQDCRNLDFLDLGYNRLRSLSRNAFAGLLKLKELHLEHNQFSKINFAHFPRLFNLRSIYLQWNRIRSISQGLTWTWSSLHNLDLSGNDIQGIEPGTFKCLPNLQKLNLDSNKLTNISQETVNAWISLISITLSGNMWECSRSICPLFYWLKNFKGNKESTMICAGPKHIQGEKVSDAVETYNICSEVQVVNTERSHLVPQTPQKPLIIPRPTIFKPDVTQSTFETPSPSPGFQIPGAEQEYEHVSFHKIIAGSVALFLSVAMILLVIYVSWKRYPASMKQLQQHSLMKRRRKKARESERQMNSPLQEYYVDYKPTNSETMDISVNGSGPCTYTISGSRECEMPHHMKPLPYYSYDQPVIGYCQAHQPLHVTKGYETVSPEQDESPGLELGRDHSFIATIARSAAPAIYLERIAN

[8] = target: T4, LRRTM4 expressed on cells; experiment: flow cytometry, transfected 293T cells, 2 µg/ml; remark: listed apart in the source
[9] = target: T3, CLEC4G expressed on cells; experiment: flow cytometry, transfected 293T cells, 50 µg/ml
[10] = target: T1, MAG expressed on cells; experiment: flow cytometry, transfected 293T cells, 50 µg/ml
[11] = target: T4, LRRTM4 expressed on cells; experiment: flow cytometry, transfected 293T cells, 50 µg/ml
[12] = target: T4, LRRTM4 expressed on cells; experiment: flow cytometry, transfected 293T cells, 50 µg/ml; remark: listed apart in the source
[13] = target: T5, BR3 expressed on cells (human, UniProt Q96RJ3 1-184); experiment: flow cytometry, transfected 293T cells, 50 µg/ml
T5 construct: Clone of the Origene human cDNA library
T5 sequence: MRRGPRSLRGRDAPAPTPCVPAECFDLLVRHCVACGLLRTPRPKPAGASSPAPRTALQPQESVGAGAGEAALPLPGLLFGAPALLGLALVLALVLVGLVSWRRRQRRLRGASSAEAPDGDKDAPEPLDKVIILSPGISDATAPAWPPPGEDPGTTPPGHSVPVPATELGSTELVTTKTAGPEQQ

[14] = target: T6, PSS8 expressed on cells (human, UniProt Q16651 30-343); experiment: flow cytometry, transfected 293T cells, 50 µg/ml
T6 construct: Clone of the Origene human cDNA library; also called Protease serine 8; prostasin
T6 sequence (Q16651 30-343 limits assumed): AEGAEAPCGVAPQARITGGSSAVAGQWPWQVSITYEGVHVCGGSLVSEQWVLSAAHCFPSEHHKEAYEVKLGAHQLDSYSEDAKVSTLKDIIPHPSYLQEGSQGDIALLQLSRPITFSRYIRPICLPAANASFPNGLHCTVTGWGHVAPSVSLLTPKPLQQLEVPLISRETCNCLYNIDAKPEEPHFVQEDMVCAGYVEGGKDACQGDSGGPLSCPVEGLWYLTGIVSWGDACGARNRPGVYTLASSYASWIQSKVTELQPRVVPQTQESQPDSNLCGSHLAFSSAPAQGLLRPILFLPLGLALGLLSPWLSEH

[15] = target: T5, BR3 expressed on cells; experiment: flow cytometry, transfected 293T cells
[16] = target: T7, IL-2Ra expressed on cells (human, UniProt P01589 22-272); experiment: flow cytometry, transfected 293T cells
T7 construct: Clone of the Origene human cDNA library; also called Interleukin 2 receptor alpha
T7 sequence: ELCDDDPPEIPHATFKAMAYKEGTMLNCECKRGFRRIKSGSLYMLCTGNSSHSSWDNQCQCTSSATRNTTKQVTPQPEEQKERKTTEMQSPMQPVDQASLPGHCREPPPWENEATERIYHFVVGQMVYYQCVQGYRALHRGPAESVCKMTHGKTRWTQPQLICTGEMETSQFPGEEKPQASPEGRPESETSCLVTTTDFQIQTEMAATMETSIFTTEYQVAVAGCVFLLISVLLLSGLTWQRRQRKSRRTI

[17] = target: T6, PSS8 expressed on cells; experiment: flow cytometry, transfected 293T cells

B1: mPILRα-Fc (Fc fusion)
chain: not shown
notes: also called mouse PILRα-Fc; WT mPILRα-Fc; not shown: Fc of mouse IgG2a (PILRα-mIgG2a, called PILRα-Fc)
Q: Does B1 bind [1]?
A: Result: no binding (tested: 50 µg/ml)

Q: What about the “% cells in lower right quadrant” value [2] of the same binder?
A: Its value is 0.082%.

Q: And the “% cells in lower right quadrant” value [3]?
A: Its value is 69.9%.

Q: And the “% cells in lower right quadrant” value [4]?
A: The value was 0.082%.

Q: And the “% cells in lower right quadrant” value [5]?
A: The value was 69.9%.

Q: What about the “% cells in lower right quadrant” value [6] of the same binder?
A: Its value is 0.039%.

Q: And the “% cells in lower right quadrant” value [7]?
A: The value was 2.68%.

Q: And the “% cells in lower right quadrant” value [8]?
A: The value was 2.68%.

Q: What about the “% cells in lower right quadrant” value [9] of the same binder?
A: The value was 85.5%.

Q: And the “% cells in lower right quadrant” value [10]?
A: The value was 0.55%.

Q: What about the “% cells in lower right quadrant” value [11] of the same binder?
A: Its value is 16.6%.

Q: What about the “% cells in lower right quadrant” value [12] of the same binder?
A: Its value is 16.6%.

Q: And the “% cells in lower right quadrant” value [13]?
A: The value was 53.3%.

Q: And the “% cells in lower right quadrant” value [14]?
A: Its value is 30.6%.

B2: mPILRαR133A-Fc (Fc fusion)
chain: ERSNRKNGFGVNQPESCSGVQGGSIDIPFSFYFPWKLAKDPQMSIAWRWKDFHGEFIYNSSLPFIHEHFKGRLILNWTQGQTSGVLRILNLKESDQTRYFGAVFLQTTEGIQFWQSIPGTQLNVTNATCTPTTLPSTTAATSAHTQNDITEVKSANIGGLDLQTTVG
notes: Arg mutant of mPILRα-Fc; also called mPILRα133A-Fc; variant mPILRα (R133A); not shown: Fc of mouse IgG2a (PILRα-mIgG2a, called PILRα-Fc)
Q: Does B2 bind [1]?
A: Result: no binding (tested: 50 µg/ml)

Q: Does B2 bind [15]?
A: Result: no binding (tested: 50 µg/ml)

Q: Does B2 bind [16]?
A: Result: no binding (tested: 50 µg/ml)

Q: Does B2 bind [17]?
A: Result: no binding (tested: 50 µg/ml)

Q: And the “% cells in lower right quadrant” value [2]?
A: The value was 0.014%.

Q: And the “% cells in lower right quadrant” value [3]?
A: Its value is 0.044%.

Q: What about the “% cells in lower right quadrant” value [4] of the same binder?
A: The value was 0.014%.

Q: What about the “% cells in lower right quadrant” value [5] of the same binder?
A: Its value is 0.044%.

Q: What about the “% cells in lower right quadrant” value [6] of the same binder?
A: The value was 0%.

Q: What about the “% cells in lower right quadrant” value [7] of the same binder?
A: Its value is 0.025%.

Q: What about the “% cells in lower right quadrant” value [8] of the same binder?
A: The value was 0.025%.

Q: And the “% cells in lower right quadrant” value [9]?
A: Its value is 0.045%.

Q: And the “% cells in lower right quadrant” value [10]?
A: The value was 0%.

Q: What about the “% cells in lower right quadrant” value [11] of the same binder?
A: Its value is 0.019%.

Q: And the “% cells in lower right quadrant” value [12]?
A: Its value is 0.019%.
